Measured values published in patent US20220220218A1 (JIANGSU HENGRUI MEDICINE, published 2022).
Residue numbers refer to the chain shown, from its start.

T1: human CD73 on tumor cell line MDA-MB-231 that highly expresses human CD73 (human, UniProt P21589 27-549)
T1 construct: whole, on cells; Cells were fixed on the plate for the cell ELISA and live for the enzyme assay; also called MDA-MB-231 cells
T1 sequence (looked up): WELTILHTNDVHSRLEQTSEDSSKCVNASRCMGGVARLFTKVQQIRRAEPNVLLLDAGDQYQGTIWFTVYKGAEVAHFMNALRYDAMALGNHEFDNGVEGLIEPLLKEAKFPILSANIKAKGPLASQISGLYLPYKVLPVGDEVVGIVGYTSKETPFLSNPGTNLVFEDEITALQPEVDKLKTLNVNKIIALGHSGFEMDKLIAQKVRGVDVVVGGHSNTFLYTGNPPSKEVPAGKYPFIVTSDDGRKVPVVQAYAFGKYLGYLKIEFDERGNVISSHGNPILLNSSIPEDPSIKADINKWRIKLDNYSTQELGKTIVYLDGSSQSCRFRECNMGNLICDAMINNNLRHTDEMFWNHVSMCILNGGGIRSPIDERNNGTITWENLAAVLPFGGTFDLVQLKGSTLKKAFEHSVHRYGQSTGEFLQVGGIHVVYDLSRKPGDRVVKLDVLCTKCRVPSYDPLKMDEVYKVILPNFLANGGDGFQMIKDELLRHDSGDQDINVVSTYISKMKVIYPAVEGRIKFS

B1: Hab108.64 (antibody, human IgG1, kappa, V domains shown)
VH: EVTLKQSGPGLVKPTETLTLTCTVSGFSLSSYGIQWVRQPPGKGLEWLGVIWSGGSADYNAAFISRLTISKDTSKSQVVLTMTNMDPVDTATYYCAGQYGSVWGQGTLVTVSS
VL: DIQMTQSPSSLSASVGDRVTITCRASQDIGDRLNWLQQKPGGAIKRLIYATSSLDSGVPKRFSGSGSGTEYTLTISSLQPEDFATYYCLQYAGSWTFGGGTKVEIKR
notes: also called humanized antibody of mab108
B2: CPX006 (antibody CPX-006 disclosed in patent application WO2018013611) (antibody, V domains shown)
VH: QVQLVQSGAEVEKPGASVKVSCKASGYTFTSYWITWVRQAPGQGLEWMGDIYPGSGNTNYNEKFKTRVTITADKSTSTAYMELSSLRSEDTAVYYCAKEGGLTTEDYALDYWGQGTLVTVSS
VL: EIVLTQSPATLSLSPGERATLSCRASKNVSTSGYSYMHWYQQKPGQAPRLLIYLASNLESGIPPRFSGSGYGTDFTLTINNIESEDAAYYFCQHSRELPFTFGQGTKVEIKR
B3: Hab110.21 (antibody, human IgG1, kappa, V domains shown)
VH: EVQLVQSGAEVKKPGASVKVSCKASGYTFTSYTMHWVRQAPGQRLEWMGYINPNSFYIEYNQKFKDRVTITRDTSASTAYMELSSLRSEDTAVYYCARGDYDLFYDMDNWGQGTTVTVSS
VL: DIQMTQSPSSLSASVGDRVTITCRASQDIGNSLNWLQQKPGKAIKRLIYATFRLDSGVPSRFSGSRSGTEYTLTISSLQPEDFATYYCQQYASFPWTFGGGTKVEIKR
notes: also called humanized antibody of mab110
B4: Hab127.31d (antibody, human IgG1, kappa, V domains shown)
VH: EVQLVQSGAEVKKPGASVKVSCKASGYTFTAYFMNWVRQAPGQGLEWMGRIYHNKGDTFYSQKFKGRVTMTVDKSTSTVYMELSSLRSEDTAVYYCATSYVGDWGQGTTVTVSS
VL: B3 VL with N31D, K42G, I44L, F52S, R53S, R66G, Q89L
notes: also called humanized antibody of mab127

Target: T1, human CD73 on tumor cell line …
Experiment: cell ELISA on fixed MDA-MB-231 cells
Method: The MDA-MB-231 cells were directly coated onto a 96-well microtiter plate. The signal strength after the addition of the antibody was used to determine the binding activity of the antibody to MDA-MB-231 cells. The specific experimental procedures were as follows:
MDA-MB-231 cells (ATCC, Cat No HTB-26) were seeded in the 96-well plate (Corning, Cat No. CLS3599-100EA) at a density of 6×10⁵/ml, 100 μl/well, and cultured overnight. The supernatant was discarded, the plate was washed with PBS for three times, 100 μl/well of cell immune fixed solution (Beyotime, Cat No. P0098) was added and fixed for half an hour at room temperature, and the plate washed with PBS for four times. The liquid was discarded, 250 μl/well blocking solution (5% skim milk diluted in PBS) was added, and incubated in an incubator at 37° C. for 3 hours. After the blocking was finished, the blocking solution was discarded, the plate was washed for 5 times with PBST buffer, 50 μl/well of various concentrations of each of the test antibodies were added, and incubated in an incubator at 37° C. for 1 hour. After the incubation was finished, the plate was washed for 5 times with PBST, 50 μl/well of HRP-labeled goat anti-mouse secondary antibody (Jackson Immuno Research, Cat No. 115-035-003) or goat anti-human secondary antibody (Jackson Immuno Research, Cat No. 109-035-003) diluted with sample diluent was added, and incubated at 37° C. for 1 hour. The plate was washed for 5 times with PBST, 50 μl/well of TMB chromogenic substrate (KPL, Cat No. 52-00-03) was added, incubated at room temperature for 5-15 min, and 50 μl/well of 1M H₂SO₄ was added to stop the reaction. The absorbance value was read by a microplate reader (Molecular Devices, VERSA max) at a wavelength of 450 nm, and the data was analyzed with GraphPad Prism 5. The binding of anti-CD73 antibody to MDA-MB-231 cells over-expressing CD73 was calculated as EC50 value.

EC50 | Binder
0.062 nM | B1
0.433 nM | B2
0.056 nM | B3
0.072 nM | B4
